Experimental findings from paper PMC5570898 are described below.

The assay concerns the target CHL1 on ventral midbrain dopaminergic neurons (mouse (endogenous in ventral midbrain primary neurons)) (UniProt P70232).

The substance “CHL1 recombinant protein (from UniProt P70232 26-1083) (natural protein)” registered an increase of TH+ neurite branching in E12.5 VM primary cultures on bound CHL1, against the Fc control of 2.4 fold; an increase of TH+ neurite branching in E12.5 VM primary cultures with soluble CHL1, against the PDL control of 5 fold; an increase of TH+ neurite length in E12.5 VM primary cultures on bound CHL1, against the Fc control of 1.8 fold; an increase of TH+ neurite length in E12.5 VM primary cultures with soluble CHL1, against the PDL control of 2 fold.
